{"source": "paper PMC8437784", "about": "(The Journal of Biological Chemistry, 2020)", "binders": {"B1": {"name": "Recombinant N-terminal His6-tagged TRF1 (from human) (natural protein, UniProt P54274 1-439, looked up)", "chain": "MAEDVSSAAPSPRGCADGRDADPTEEQMAETERNDEEQFECQELLECQVQVGAPEEEEEEEEDAGLVAEAEAVAAGWMLDFLCLSLCRAFRDGRSEDFRRTRNSAEAIIHGLSSLTACQLRTIYICQFLTRIAAGKTLDAQFENDERITPLESALMIWGSIEKEHDKLHEEIQNLIKIQAIAVCMENGNFKEAEEVFERIFGDPNSHMPFKSKLLMIISQKDTFHSFFQHFSYNHMMEKIKSYVNYVLSEKSSTFLMKAAAKVVESKRTRTITSQDKPSGNDVEMETEANLDTRKSVSDKQSAVTESSEGTVSLLRSHKNLFLSKLQHGTQQQDLNKKERRVGTPQSTKKKKESRRATESRIPVSKSQPVTPEKHRARKRQAWLWEEDKNLRSGVRKYGEGNWSKILLHYKFNNRTSVMLKDRWRTMKKLKLISSDSED"}, "B2": {"name": "N-terminal HA-tagged TIN2S (HA-TIN2S, 1-354 aa) (natural protein, human, UniProt Q9BSI4-2 1-354, looked up)", "chain": "MATPLVAGPAALRFAAAASWQVVRGRCVEHFPRVLEFLRSLRAVAPGLVRYRHHERLCMGLKAKVVVELILQGRPWAQVLKALNHHFPESGPIVRDPKATKQDLRKILEAQETFYQQVKQLSEAPVDLASKLQELEQEYGEPFLAAMEKLLFEYLCQLEKALPTPQAQQLQDVLSWMQPGVSITSSLAWRQYGVDMGWLLPECSVTDSVNLAEPMEQNPPQQQRLALHNPLPKAKPGTHLPQGPSSRTHPEPLAGRHFNLAPLGRRRVQSQWASTRGGHKERPTVMLFPFRNLGSPTQVISKPESKEEHAIYTADLAMGTRAASTGKSKSPCQTLGGRALKENPVDLPATEQKE"}, "B3": {"name": "48 bp telomeric dsDNA, 3 TTAGGG (dsDNA)", "DNA 1": "TTAGGGTTAGGGTTAGGGATGTCCAGCAAGCCAGAATTCGGCAGCGTA", "DNA 2": "TACGCTGCCGAATTCTGGCTTGCTGGACATCCCTAACCCTAACCCTAA"}}, "key": {"[1]": {"biological_target": "T1, Recombinant N-terminal His6-tagged TRF1 (from human) (human), P54274", "T1 chain": "B1 chain", "assay": "AFM volume analysis", "conditions": "remark: other sources report otherwise"}, "[2]": {"biological_target": "T2, N-terminal HA-tagged TIN2L (HA-TIN2L, 1-451 aa) (human, UniProt Q9BSI4-1 1-451)", "T2 sequence (looked up)": "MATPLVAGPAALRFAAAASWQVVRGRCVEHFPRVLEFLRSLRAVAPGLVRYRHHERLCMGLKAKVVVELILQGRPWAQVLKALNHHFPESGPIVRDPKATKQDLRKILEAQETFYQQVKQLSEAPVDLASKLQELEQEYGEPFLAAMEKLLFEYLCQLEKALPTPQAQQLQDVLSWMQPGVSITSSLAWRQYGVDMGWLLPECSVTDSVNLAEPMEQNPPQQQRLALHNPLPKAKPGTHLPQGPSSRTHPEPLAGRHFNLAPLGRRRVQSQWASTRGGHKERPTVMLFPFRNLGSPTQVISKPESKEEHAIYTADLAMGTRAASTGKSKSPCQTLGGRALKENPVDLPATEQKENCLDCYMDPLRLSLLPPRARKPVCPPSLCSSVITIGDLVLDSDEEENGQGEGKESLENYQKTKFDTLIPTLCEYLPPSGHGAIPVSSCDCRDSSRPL", "assay": "DNA tightrope assay"}, "[3]": {"biological_target": "B1", "assay": "DNA tightrope assay"}, "TRF1": {"biological_target": "TRF1 (human, UniProt P54274 1-439)", "assay": "EMSA"}, "TRF1;TIN2L": {"biological_target": "TRF1;TIN2L (human;human?, UniProt P54274;Q9BSI4 1-439;1-451, |)", "assay": "EMSA"}, "TRF1;TIN2S": {"biological_target": "TRF1;TIN2S (human;human?, UniProt P54274;Q9BSI4-2 1-439;1-354, |)", "assay": "EMSA"}, "TIN2L": {"biological_target": "T3, TIN2L (UniProt Q9BSI4 1-451)", "T3 sequence": "T2 sequence (looked up)", "assay": "EMSA"}, "TIN2S": {"biological_target": "T4, TIN2S (UniProt Q9BSI4-2 1-354)", "T4 sequence": "B2 chain", "assay": "EMSA"}}, "data": [{"binder": "B1", "values": [{"measurement": "stoichiometry N", "setting": "[1]", "result": 2}, {"measurement": "binding result", "setting": "[2]", "result": "binds"}]}, {"binder": "B2", "values": [{"measurement": "binding result", "setting": "[3]", "result": "binds"}]}, {"binder": "B3", "values": [{"measurement": "binding result", "setting": "TRF1", "result": "binds"}, {"measurement": "binding result", "setting": "TRF1;TIN2L", "result": "binds"}, {"measurement": "binding result", "setting": "TRF1;TIN2S", "result": "binds"}, {"measurement": "binding result", "setting": "TIN2L", "result": "no binding"}, {"measurement": "binding result", "setting": "TIN2S", "result": "no binding"}]}]}
